Results on four molecules are retold here after US20180282719A1 (published 2018).

Experiment [1] deals with T1, recombinant soluble human IL-6 receptor (SR344) (human, UniProt P08887 20-344, biotinylated (sites not given) where immobilized via streptavidin or used in phage ELISA).
T1 construct: also called soluble IL-6 receptor; membrane-type IL-6 receptor (when biotinylated and immobilized on the chip)
T1 sequence (looked up): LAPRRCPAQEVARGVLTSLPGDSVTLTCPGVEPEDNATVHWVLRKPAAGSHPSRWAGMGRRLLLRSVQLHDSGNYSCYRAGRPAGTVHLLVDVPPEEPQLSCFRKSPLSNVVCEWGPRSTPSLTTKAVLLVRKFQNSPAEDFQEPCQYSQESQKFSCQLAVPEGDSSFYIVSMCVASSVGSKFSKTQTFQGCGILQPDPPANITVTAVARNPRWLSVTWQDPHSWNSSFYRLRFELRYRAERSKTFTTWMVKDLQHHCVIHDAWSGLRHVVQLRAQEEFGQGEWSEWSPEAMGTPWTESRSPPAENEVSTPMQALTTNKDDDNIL
The experiment in a line: SPR Biacore T100, biotinylated SR344 on streptavidin chip (model of membrane IL-6 receptor), antibody 0.5 ug/mL as analyte, bound at pH 7.4, dissociation at pH 7.4, 37 C. How it is done:
(§1) The binding to membrane IL-6 receptor was evaluated by evaluating the binding to the IL-6 receptor immobilized onto a sensor chip. SR344 was biotinylated according to a method known to persons skilled in the art, and the biotinylated SR344 was immobilized on the sensor chip via streptavidin by utilizing the affinity between streptavidin and biotin. All the measurements were carried out at 37° C., and the mobile phase buffer contained 10 mM MES (pH 5.8), 150 mM NaCl and 0.05% TWEEN® 20 (polyoxyethelene sorbitan monolaurate). The pH-dependent binding clones were injected therein under the condition of pH 7.4 and allowed to bind to SR344 (injection sample buffer: 10 mM MES (pH 7.4), 150 mM NaCl, 0.05% TWEEN® 20 (polyoxyethelene sorbitan monolaurate)), and the pH-dependent dissociation of each clone at the mobile phase pH of 5.8 was observed (FIG. 10).
(§2) The dissociation rate […]) at pH 5.8 was calculated using Biacore T100™ Evaluation Software (GE Healthcare) by fitting only the dissociation phase at pH 5.8, where 0.5 μg/mL of the sample was bound in 10 mM MES (pH 7.4), 150 mM NaCl, and 0.05% TWEEN® 20 (polyoxyethelene sorbitan monolaurate), and dissociated in 10 mM MES (pH 5.8), 150 mM NaCl, and 0.05% TWEEN® 20 (polyoxyethelene sorbitan monolaurate). Similarly, the dissociation rate (kd(1/s)) at pH 7.4 was calculated using Biacore T100™ Evaluation Software (GE Healthcare) by fitting only the dissociation phase at pH 7.4, where 0.5 μg/mL of the sample was bound in 10 mM MES (pH 7.4), 150 mM NaCl, and 0.05% TWEEN® 20 (polyoxyethelene sorbitan monolaurate), and dissociated in 10 mM MES (pH 7.4), 150 mM NaCl, and 0.05% TWEEN® 20 (polyoxyethelene sorbitan monolaurate).

Experiment [2] addresses T1, recombinant soluble human IL-6 receptor …. The experiment in a line: SPR Biacore T100, antibody on protein A/G chip, SR344 analyte, pH 5.8, 37 C. As for the experimental part:
(§3) Kinetic analyses of antigen-antibody reactions at pH 5.8 and pH 7.4 were carried out using a Biacore™ T100 surface plasmon resonance system (GE Healthcare) on the four antibodies: humanized PM1 antibody (WT) and H3pI/L73, CLH5/L73, and H170/L82 produced in Examples 2 and 4 (buffer: 10 mM MES (pH 7.4 or pH 5.8), 150 mM NaCl, and 0.05% TWEEN® 20 (polyoxyethelene sorbitan monolaurate)). Various antibodies were bound onto a sensor chip immobilized with recomb-protein A/G (Pierce) by amine coupling. SR344 adjusted to concentrations of 9.8 to 400 nM was injected to the chip as an analyte. […] All the measurements were carried out at 37° C. Association rate constants kₐ (1/Ms) and dissociation rate constants kd (1/s) were calculated using Biacore T100™ Evaluation Software (GE Healthcare), and dissociation constants KD (M) were calculated on the basis of those values (Table 5). Moreover, the ratio of the affinities at pH 5.8 and pH 7.4 were calculated for each clone to evaluate pH-dependent binding. All the measurements were carried out at 37° C.
In general terms: In SPR one partner is held on a chip, and binding of the other changes the refractive index at the surface.

Experiment [3] shares this target. Description: SPR Biacore T100, biotinylated SR344 on streptavidin chip (model of membrane-type IL-6 receptor), antibody as analyte, 37 C. As for the experimental part:
Binding to the membrane-type IL-6 receptor was evaluated by evaluating binding to the IL-6 receptor immobilized on a sensor chip. SR344 was biotinylated in accordance with a method known among persons with ordinary skill in the art, and the biotinylated SR344 was immobilized on the sensor chip via streptavidin using the affinity between streptavidin and biotin. All the measurements were carried out at 37° C. The mobile phase buffer was 10 mM MES (pH 5.8), 150 mM NaCl and 0.05% TWEEN® 20 (polyoxyethelene sorbitan monolaurate).
The pH-dependently-binding clones were injected under the condition of pH 7.4 to allow them to bind to SR344, and then, the pH-dependent dissociation of each clone at the pH of the mobile phase, pH 5.8, was observed. The results are shown in FIG. 21 (results for Fv1-M71, Fv1-M73, Fv3-M71, and Fv3-M73 are shown in FIG. 21, while results for other clones are shown in FIGS. 17 and 19). Analyses were carried out in the same manner as in Example 10 and the pH dependencies of the dissociation rate constants of all of the eleven types of clones are shown in Table 12.

Experiment [4] shares this target. The experiment in a line: SPR Biacore T100, biotinylated SR344 on streptavidin chip (model of membrane IL-6 receptor), antibody 0.5 ug/mL as analyte, bound at pH 7.4, dissociation at pH 5.8, 37 C. How it is done:
as §1, §2

Experiment [5] shares this target. Description: SPR Biacore T100, antibody on protein A/G chip, SR344 analyte, pH 7.4, 37 C. How it is done:
as §3

Substitutions are numbered along the chain they refer to.

B1: humanized PM1 antibody (wild type, WT) (antibody, human IgG1, kappa, V domains shown)
VH: QVQLQESGPGLVRPSQTLSLTCTVSGYSITSDHAWSWVRQPPGRGLEWIGYISYSGITTYNPSLKSRVTMLRDTSKNQFSLRLSSVTAADTAVYYCARSLARTTAMDYWGQGSLVTVSS
VL: DIQMTQSPSSLSASVGDRVTITCRASQDISSYLNWYQQKPGKAPKLLIYYTSRLHSGVPSRFSGSGSGTDFTFTISSLQPEDIATYYCQQGNTLPYTFGQGTKVEIKR
notes: IgG1; also called WT-IgG1; wild type humanized anti-IL-6 receptor antibody
Consider B1, for which the koff (commonly the rate constant with which the complex falls apart) was found to be 0.000484 s⁻¹ in experiment [1], 0.0038 s⁻¹ in experiment [2], 0.000715 s⁻¹ in experiment [4] and 0.001 s⁻¹ in experiment [5]. In addition, the Kd (as a rule, the concentration at which binding is half-saturated) in experiment [2] amounted to 5 nM; in experiment [5] it was 2.1 nM. Moreover, the kon – broadly, the rate constant with which the complex forms – in experiment [2] worked out at 760000 M⁻¹ s⁻¹; in experiment [5], 510000 M⁻¹ s⁻¹. Besides, in experiment [3], the “kd (pH 5.8)/kd (pH 7.4)” value turned out to be 1.

B2: Fv4-IgG1 (antibody)
heavy: not shown
light: DIQMTQSPSSLSASVGDSVTITCQASTDISSHLNWYQQKPGKAPELLIYYGSHLLSGVPSRFSGSGSGTDFTFTISSLEAEDAATYYCGQGNRLPYTFGQGTKVEIERTVAAPSVFIFPPSDEQLKSGTASVVCLLNNFYPREAKVQWKVDNALQSGNSQESVTEQDSKDSTYSLSSTLTLSKADYEKHKVYACEVTHQGLSSPVTKSFNRGEC
notes: VH3-IgG1 / VL3-CK
B2: the “kd (pH 5.8)/kd (pH 7.4)” value in experiment [3] turned out to be 5.56.

B3: H3pI/L73 (antibody, IgG1, V domains shown)
VH: QVQLQESGPGLVKPSETLSLTCAVSGHSISHDHAHSWVRQPPGEGLEWIGYISYSGITNYNPSLKGRVTISRDTSKNQFSLKLSSVTAADTAAYYCARSLARTTAMDYWGEGTLVTVSS
VL: DIQMTQSPSSLSASVGDSVTITCQASQHISSHLNWYQQKPGKAPELLIYYGSHLHSGVPSRFSGSGSGTDFTFTISSLEAEDAATYYCGQGNRLPYTFGQGTKVEIE
notes: tested as IgG1; also called H3pI/L73-IgG1; H3pl/L73
For B3, the koff in experiment [1] turned out to be 0.000344 s⁻¹; in experiment [2], 0.0097 s⁻¹; in experiment [4], 0.00378 s⁻¹; in experiment [5], 0.00074 s⁻¹. The results for the dissociation constant Kd in experiment [2] and in experiment [5] were 57 nM and 1.4 nM, respectively. The kon in experiment [2] came to 170000 M⁻¹ s⁻¹; in experiment [5] it was 540000 M⁻¹ s⁻¹. Further, the “kd (pH 5.8)/kd (pH 7.4)” value in experiment [3] worked out at 2.59.

B4: H170/L82 (antibody, IgG1, V domains shown)
VH: B3 VH with D32H, N59H, S63H, S99V, T103I, Y108H
VL: B3 VL with H28D
notes: expressed and purified as IgG (IgG1); also called H170/L82-IgG1
Regarding B4, the off-rate (koff) is 0.00077 s⁻¹ in experiment [1], 0.017 s⁻¹ in experiment [2], 0.00144 s⁻¹ in experiment [4] and 0.0011 s⁻¹ in experiment [5]. The Kd in experiment [2] came to 640 nM; in experiment [5], 1.6 nM. Also, the kon in experiment [2] came to 26000 M⁻¹ s⁻¹; in experiment [5], 680000 M⁻¹ s⁻¹.
